Laboratory results: article PMC3335792, “M. tuberculosis Sliding β-Clamp Does Not Interact Directly with the NAD^+ -Dependent DNA Ligase” (PLoS ONE, 2012)

T1: Mtbβ-clamp labeled with OregonGreen488 maleimide (Mtbβ-clamp^OG) (M. tuberculosis, UniProt P9WNU1 1-402, OregonGreen488 maleimide label (residue not stated))
T1 construct: also called Mtbβ^OG-Clamp
T1 sequence: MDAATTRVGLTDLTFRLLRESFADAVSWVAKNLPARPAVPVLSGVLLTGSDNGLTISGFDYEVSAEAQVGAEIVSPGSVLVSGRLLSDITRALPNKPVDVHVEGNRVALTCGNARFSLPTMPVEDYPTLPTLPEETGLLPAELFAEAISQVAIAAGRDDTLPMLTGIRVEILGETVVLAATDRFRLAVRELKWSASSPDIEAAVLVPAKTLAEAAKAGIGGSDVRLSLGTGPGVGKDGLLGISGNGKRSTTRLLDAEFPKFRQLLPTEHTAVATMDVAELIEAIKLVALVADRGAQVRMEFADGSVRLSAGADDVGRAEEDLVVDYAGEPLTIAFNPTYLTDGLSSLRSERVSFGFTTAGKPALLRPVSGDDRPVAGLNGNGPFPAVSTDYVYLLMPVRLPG


How the values were obtained:
[1] = biological target: T1, Mtbβ-clamp labeled with OregonGreen488 …; assay: other fluorescence titration; OregonGreen488-labeled β-clamp (50 or 100 nM in the methods, 90 nM in the legend) titrated with the partner protein; 20 mM Tris-Cl pH 7.5, 8 mM MgCl2, 1 mM DTT, 0.2 mM EDTA, 50 mM NaCl, 0.5 mM ATP, 22°C; emission at 510 nm; apparent Kd; details: both partners purified
[2] = biological target: the molecule itself; assay: crystal structure; Mtbβ-Clamp, hanging drop, 9% isopropanol, 12% PEG4K, 0.1 M Na HEPES pH 7.0, 295 K; space group C222_(1); two chains in the asymmetric unit

Row | Binder | Kd [1] [nM] | binding result [2]
1 | γ-subunit of the DNA clamp loader complex of M. tuberculosis (Rv3721c) (natural protein, γ-subunit of the DNA clamp loader (DNA polymerase III subunit gamma/tau) of M. tuberculosis, Rv3721c; also called γ-clamp loader; Mtb-γ-subunit) MALYRKYRPASFAEVVGQEHVTAPLSVALDAGRINHAYLFSGPRGCGKTSSARILARSLNCAQGPTANPCGVCESCVSLAPNAPGSIDVVELDAASHGGVDDTRELRDRAFYAPVQSRYRVFIVDEAHMVTTAGFNALLKIVEEPPEHLIFIFATTEPEKVLPTIRSRTHHYPFRLLPPRTMRALLARICEQEGVVVDDAVYPLVIRAGGGSPRDTLSVLDQLLAGAADTHVTYTRALGLLGVTDVALIDDAVDALAACDAAALFGAIESVIDGGHDPRRFATDLLERFRDLIVLQSVPDAASRGVVDAPEDALDRMREQAARIGRATLTRYAEVVQAGLGEMRGATAPRLLLEVVCARLLLPSASDAESALLQRVERIETRLDMSIPAPQAVPRPSAAA | 23.8 | –
2 | M. tuberculosis sliding β-clamp (Mtbβ-clamp, Rv0002) (natural protein, also called beta clamp; Native Mtbβ-Clamp) MDAATTRVGLTDLTFRLLRESFADAVSWVAKNLPARPAVPVLSGVLLTGSDNGLTISGFDYEVSAEAQVGAEIVSPGSVLVSGRLLSDITRALPNKPVDVHVEGNRVALTCGNARFSLPTMPVEDYPTLPTLPEETGLLPAELFAEAISQVAIAAGRDDTLPMLTGIRVEILGETVVLAATDRFRLAVRELKWSASSPDIEAAVLVPAKTLAEAAKAGIGGSDVRLSLGTGPGVGKDGLLGISGNGKRSTTRLLDAEFPKFRQLLPTEHTAVATMDVAELIEAIKLVALVADRGAQVRMEFADGSVRLSAGADDVGRAEEDLVVDYAGEPLTIAFNPTYLTDGLSSLRSERVSFGFTTAGKPALLRPVSGDDRPVAGLNGNGPFPAVSTDYVYLLMPVRLPG | – | binds
